T1: Receptor Interacting Protein Kinase-1 (RIPK1) (human, UniProt Q13546 1-671)
T1 construct: Endogenous protein in human AD and CTL brain extracts (TBS/Triton-X100) and in human cell lysates; also called RIP1
T1 sequence (looked up): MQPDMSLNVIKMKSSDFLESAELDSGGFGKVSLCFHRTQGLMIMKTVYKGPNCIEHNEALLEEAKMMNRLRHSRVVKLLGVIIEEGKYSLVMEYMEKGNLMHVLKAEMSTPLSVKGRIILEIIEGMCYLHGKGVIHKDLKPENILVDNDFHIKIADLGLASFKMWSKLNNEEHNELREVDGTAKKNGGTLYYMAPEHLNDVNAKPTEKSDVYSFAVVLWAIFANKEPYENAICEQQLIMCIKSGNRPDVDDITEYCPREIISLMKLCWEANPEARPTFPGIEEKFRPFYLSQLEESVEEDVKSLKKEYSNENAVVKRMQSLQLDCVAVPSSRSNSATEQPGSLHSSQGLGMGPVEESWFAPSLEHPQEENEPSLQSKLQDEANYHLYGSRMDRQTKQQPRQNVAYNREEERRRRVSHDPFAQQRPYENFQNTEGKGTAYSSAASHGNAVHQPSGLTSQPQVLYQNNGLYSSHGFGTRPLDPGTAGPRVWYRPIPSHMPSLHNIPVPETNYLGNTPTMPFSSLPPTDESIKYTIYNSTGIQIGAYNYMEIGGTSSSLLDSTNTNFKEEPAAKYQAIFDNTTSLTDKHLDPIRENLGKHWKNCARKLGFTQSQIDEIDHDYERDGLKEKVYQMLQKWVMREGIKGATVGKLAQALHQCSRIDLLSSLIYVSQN

B1: Receptor Interacting Protein Kinase-3 (RIPK3) (enzyme, human, UniProt Q9Y572 1-518, looked up)
chain: MSCVKLWPSGAPAPLVSIEELENQELVGKGGFGTVFRAQHRKWGYDVAVKIVNSKAISREVKAMASLDNEFVLRLEGVIEKVNWDQDPKPALVTKFMENGSLSGLLQSQCPRPWPLLCRLLKEVVLGMFYLHDQNPVLLHRDLKPSNVLLDPELHVKLADFGLSTFQGGSQSGTGSGEPGGTLGYLAPELFVNVNRKASTASDVYSFGILMWAVLAGREVELPTEPSLVYEAVCNRQNRPSLAELPQAGPETPGLEGLKELMQLCWSSEPKDRPSFQECLPKTDEVFQMVENNMNAAVSTVKDFLSQLRSSNRRFSIPESGQGGTEMDGFRRTIENQHSRNDVMVSEWLNKLNLEEPPSSVPKKCPSLTKRSRAQEEQVPQAWTAGTSSDSMAQPPQTPETSTFRNQMPSPTSTGTPSPGPRGNQGAERQGMNWSCRTPEPNPVTGRPLVNIYNCSGVQVGDNNYLTMQQTTALPTWGLAPSGKGRGLQHPPPVGSQEGPKDPEAWSRPQGWYNHSGK
notes: Endogenous protein in human brain sections
B2: Mixed Lineage Kinase Domain-Like (MLKL) (other)
chain: MENLKHIITLGQVIHKRCEEMKYCKKQCRRLGHRVLGLIKPLEMLQDQGKRSVPSEKLTTAMNRFKAALEEANGEIEKFSNRSNICRFLTASQDKILFKDVNRKLSDVWKELSLLLQVEQRMPVSPISQGASWAQEDQQDADEDRRAFQMLRRDNEKIEASLRRLEINMKEIKETLRQYLPPKCMQEIPQEQIKEIKKEQLSGSPWILLRENEVSTLYKGEYHRAPVAIKVFKKLQAGSIAIVRQTFNKEIKTMKKFESPNILRIFGICIDETVTPPQFSIVMEYCELGTLRELLDREKDLTLGKRMVLVLGAARGLYRLHHSEAPELHGKIRSSNFLVTQGYQVKLAGFELRKTQTSMSLGTTREKTDRVKSTAYLSPQELEDVFYQYDVKSEIYSFGIVLWEIATGDIPFQGCNSEKIRKLVAVKRQQEPLGEDCPSELREIIDECRAHDPSVRPSVDEILKKLSTFSK
notes: Endogenous protein in human brain extracts and HAP1 cells

Experiment [1] has as its target T1, Receptor Interacting Protein Kinase-1 …. The experiment can be described thus: confocal co-localization in co-labeled human brain sections. The procedure:
(§1) The tissue was then washed in water and let dry overnight. The next day the slides were cleared in xylene and coverslipped with DPX mounting solution (Sigma-Aldrich). The immunohistochemistry on the brain sections from APP/PS1 was conducted following a similar protocol as we previously detailed 49. In this case, sections were stained with an anti-A(342 specific antibody (1:200; Millipore, catalog number AB5078P) and with a neuronal marker NeuN (1:200, Millipore, catalog number MAB377), Iba1 (Wako), GFAP (Cell Signaling) and GFP (1:200, Thermo Fisher Scientific, catalog number A-11122).
(§2) Confocal microscopy and image analysis: All images were acquired at a resolution size of x=1024, y=1024, and z=1, using a 63× oil immersion objective and zoom of 1.5 using the Leica DM 2500 confocal microscope. Image fields within the x-y plane of the tissue section were randomly selected. For each image acquired, channels were split to allow separate pixel quantification in both the 561 nm and 635 nm channels. To quantify total protein in each image field, channels were split and the integrated signal density of each channel was quantified using ImageJ software. Human brain tissue sections immunostained for RIPK1, RIPK3, MLKL, and pMLKL were analyzed to measure absolute protein levels, as well as co-localization between RIPK1 and RIPK3, RIPK3 and MLKL, and RIPK1 and MLKL. […]

The target in experiment [2] is B1. The experiment is described as above. The procedure: as §1, §2

For the molecule B1, the binding result in experiment [1] is given as “binds”.

In the case of B2, the binding result in experiment [2] is “binds”.

The values above are taken from patent publication US20180094248A1 (ARIZONA BOARD OF REGENTS ON BEHALF OF ARIZONA STATE …, published 2018).
